Molecular target: Spodoptera frugiperda ABCc2 transporter (Spodoptera frugiperda)
Assay: cell-based or functional assay

Substance: TIC105 toxin (wild type, unmodified)
- relative fluorescence of SYTOX Green, Sf9 cells expressing the SfABCc2 transporter (relative fluorescence): 57200
